7 molecules from patent US20040151715A1 (SCHERING, published 2004) can be followed below.

Data set [1] concerns the target T1, human ADAM33 catalytic domain (human, UniProt Q9BZ11 204-409).
T1 construct: Expressed in Drosophila S2 cells as pre/pro/cat with a C-terminal Ser-Gly-His6 tag and processed at RGRR203/EARR; also called CAT domain; protease domain
T1 sequence: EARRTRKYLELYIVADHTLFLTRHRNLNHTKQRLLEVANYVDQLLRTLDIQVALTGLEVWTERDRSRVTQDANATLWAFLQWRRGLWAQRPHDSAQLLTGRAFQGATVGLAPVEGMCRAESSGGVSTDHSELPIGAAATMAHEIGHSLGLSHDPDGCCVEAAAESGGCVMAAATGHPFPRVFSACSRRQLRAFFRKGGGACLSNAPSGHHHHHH
The data set is described as follows: HPLC assay of KL-1 peptide (100 µM) cleavage by ADAM33cat (80 nM), TIMP pre-incubated 1 h at RT; Morrison tight-binding fit (Ki app). As to the method:
(§1) The inhibition dissociation constants (Kᵢ) for inhibitors were determined as follows: an HPLC assay was performed in the presence or absence of inhibitors for 2 h at RT using ADAM33cat (80 nM) and KL-1 peptide substrate (100 μM). For testing tissue inhibitor of metalloproteinases (TIMPs), ADAM33 and human TIMPs were pre-incubated for 1 h at RT. Serial dilutions of TIMPs or synthetic inhibitors were tested starting at 4 μM (TIMP-2, -3, 4), 2 μM (TIMP-1, IK682), 20 μM (Marimastat), or 200 μM (Immunex compound 1: N-{DL-[2-(hydroxyamino-carbonyl)methyl]4-methylpentanoyl}-L-3-(tertbutyl)glycyl-L-alanine,2-aminoethylamide). Initial velocities were calculated by dividing cleaved product over reaction time. The initial velocities were plotted as a function of inhibitor concentration. For tight binding inhibitors (IK682, TIMP-3), the apparent inhibitor dissociation constants (Kᵢ app values) were calculated by fitting the curve to the following modified Morrison's equation: […]
(§2) The cleavage of the KL-1 peptide by ADAM33 was used to evaluate the effect of different classes of protease inhibitors. Inhibition constants of several hydroxamate compounds, known to inhibit either ADAM17 [IK682, and the Immunex compound 1] or MMPs [Marimastat], were determined. […] Human TIMP-1, -2, -3 and -4, endogenous inhibitors of MMPs and ADAMs, were tested for inhibition of ADAM33 activity.

In data set [2] the target is T2, MCF substrate peptide (Ac-LPPVAASSLNRD-NH2).
T2 chain: LPPVAASSLNRD

Data set [3] concerns the target T3, insulin B chain peptide (HLVEALYLVC).
T3 chain: HLVEALYLVC

Data set [4] addresses T4, human ADAM33 pro domain (wild type).
T4 chain: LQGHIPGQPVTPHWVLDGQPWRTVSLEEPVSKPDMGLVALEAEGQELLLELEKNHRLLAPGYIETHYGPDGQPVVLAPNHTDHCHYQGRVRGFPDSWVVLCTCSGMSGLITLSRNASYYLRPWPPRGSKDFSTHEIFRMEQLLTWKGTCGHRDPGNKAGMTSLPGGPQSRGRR

Data set [5] concerns the target T5, APP peptide (YEVHHQKLVF).
T5 chain: YEVHHQKLVF

The target of data set [6] is T6, TRANCE peptide (VGSQHIRAEK).
T6 chain: VGSQHIRAEK

In data set [7] the target is T7, KL-1 peptide (PPVAASSLRN).
T7 chain: PPVAASSLRN

Data set [8] addresses T1, human ADAM33 catalytic domain. The experiment in a line: HPLC assay of KL-1 peptide (100 µM) cleavage by ADAM33cat (80 nM), TIMP pre-incubated 1 h at RT; competitive inhibition fit. As to the method: as §1, §2
The target is the same in data set [9]. The experiment in a line: co-purification during chromatography; heterodimer not disrupted by APMA and/or detergents.

Substitutions are numbered along the chain they refer to. In names and notes the source's numbering stands.

B1: human TIMP-3 (tissue inhibitor of metalloproteinases 3) (other, UniProt P35625 24-211, looked up)
chain: CTCSPSHPQDAFCNSDIVIRAKVVGKKLVKEGPFGTLVYTIKQMKMYRGFTKMPHVQYIHTEASESLCGLKLEVNKYQYLLTGRVYDGKMYTGLCNFVERWDQLTLSQRKGLNYRYHLGCNCKIKSCYYLPCFVTSKNECLWTDMLSNFGYPGYQSKHYACIRQKGGYCSWYRGWAPPDKSIINATDP
As to B1, in data set [1], the Ki was determined as 64 nM.

B2: single chain zymogen form of ADAM33 (R203T/R207S) (protein)
chain: LQGHIPGQPVTPHWVLDGQPWRTVSLEEPVSKPDMGLVALEAEGQELLLELEKNHRLLAPGYIETHYGPDGQPVVLAPNHTDHCHYQGRVRGFPDSWVVLCTCSGMSGLITLSRNASYYLRPWPPRGSKDFSTHEIFRMEQLLTWKGTCGHRDPGNKAGMTSLPGGPQSRGRTEARSTRKYLELYIVADHTLFLTRHRNLNHTKQRLLEVANYVDQLLRTLDIQVALTGLEVWTERDRSRVTQDANATLWAFLQWRRGLWAQRPHDSAQLLTGRAFQGATVGLAPVEGMCRAESSGGVSTDHSELPIGAAATMAHEIGHSLGLSHDPDGCCVEAAAESGGCVMAAATGHPFPRVFSACSRRQLRAFFRKGGGACLSNAP
B2: the “catalytic efficiency on the MCF peptide” value in [2] is listed as “showed no significant difference to that of the CAT domain”.

B3: human ADAM33 catalytic domain (protein)
chain: T1 sequence
For orientation: Km means the substrate concentration at which the rate is half of its maximum. In general, kcat refers to the number of substrate molecules converted per active site and unit of time at saturation. With B3, the “peptide cleavage (HPLC; site by MALDI-TOF MS)” value in data set [3] is “ADAM33 cleaved the ... insulin B chain peptide at A * L”. The “catalytic efficiency of the pro/CAT complex on the MCF peptide, tested at 50 nM-1 µM” value in data set [4] is “comparable to that of the CAT domain”. Moreover, in data set [5], the Michaelis constant (Km) was found to be 1.0 ± 0.1 mM, the catalytic constant (kcat) was 0.2 ± 0.1 s⁻¹, the kcat/Km entry is on record as “(1.6±0.3)×10^2 M^-1 s^-1 (n=2)” and the “peptide cleavage (HPLC; site by MALDI-TOF MS)” value was “ADAM33 cleaved the APP peptide at H * Q”. The “peptide cleavage (HPLC; site by MALDI-TOF MS)” value in data set [6] is “ADAM33 cleaved the ... human TRANCE peptide at H * I”. Moreover, in [2], the Michaelis-Menten constant (Km) result was “suggesting a Km value greater than the highest tested concentration (500 µM)”; the “catalytic efficiency (kcat/Km)” value is reported as 2.6±0.5)×10^2 M^-1 s^-1; the “peptide cleavage (HPLC)” value was “The wild-type ADAM33 cleaved the peptide between the residues corresponding to Ala-190 and Ser-191”. Besides, in [7], the Km is 3.0 ± 0.1 mM, the kcat is 0.7 ± 0.1 s⁻¹, the kcat/Km entry is “(2.6±0.5)×10^2 M^-1 s^-1 (n=3)” and the “peptide cleavage (HPLC; site by MALDI-TOF MS)” value is “ADAM33 cleaved the ... KL-1 peptide at A * S”.

B4: human TIMP-4 (tissue inhibitor of metalloproteinases 4) (other, UniProt Q99727 30-224, looked up)
chain: CSCAPAHPQQHICHSALVIRAKISSEKVVPASADPADTEKMLRYEIKQIKMFKGFEKVKDVQYIYTPFDSSLCGVKLEANSQKQYLLTGQVLSDGKVFIHLCNYIEPWEDLSLVQRESLNHHYHLNCGCQITTCYTVPCTISAPNECLWTDWLLERKLYGYQAQHYVCMKHVDGTCSWYRGHLPLRKEFVDIVQP
In the case of B4, the Ki in [8] was found to be 223 nM.

B5: human ADAM33 pro domain C131A (other)
chain: T4 chain with C101A
notes: The whole pro/cat entry is named; The protein was processed at the pro-CAT junction, so only the part before EARR is the pro domain
On to B5, for which the “percent of protease domain associated with the pro domain” value (“percent of protease domain associated” for short) in data set [9] is greater than 80%.

B6: human ADAM33 pro domain C131A/C179A (other)
chain: T4 chain with C101A, C149A
notes: as for B5
For B6, in data set [9], the “percent of protease domain associated” value was greater than 80%.

B7: human ADAM33 pro domain C179A (other)
chain: T4 chain with C149A
notes: as for B5
On to B7, for which, in data set [9], the “percent of protease domain associated” value was greater than 80%.
